Test results as given in US20220276241A1 (TRUSTEES OF INDIANA UNIVERSITY, published 2022).

Target: T1, PhnD E177NΔ (E. coli, UniProt P16682 27-329, acrylodan on Cys 126)
T1 chain: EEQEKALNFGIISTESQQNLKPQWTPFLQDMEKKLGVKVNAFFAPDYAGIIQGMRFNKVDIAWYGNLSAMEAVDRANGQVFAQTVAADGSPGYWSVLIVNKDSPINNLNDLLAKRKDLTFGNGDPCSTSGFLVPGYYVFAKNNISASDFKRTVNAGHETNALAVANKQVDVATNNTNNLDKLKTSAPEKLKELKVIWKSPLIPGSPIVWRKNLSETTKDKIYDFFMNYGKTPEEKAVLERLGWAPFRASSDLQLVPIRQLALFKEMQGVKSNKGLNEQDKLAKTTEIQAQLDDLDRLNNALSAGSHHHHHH
Test: cell-based or functional assay

B1: Fab N2 (Fab, V domains shown)
VH: EVQLVESGGGLVQPGGSLRLSCAASGFNFSSSIHWVRQAPGKGLEWVASISSSSGSTSYADSVKGRFTISADTSKNTAYLQMNSLRAEDTAVYYCARQWSSVMEWYIGLDYWGQGTLVTVSS
VL: DIQMTQSPSSLSASVGDRVTITCRASQSVSSAVAWYQQKPGKAPKLLIYSASSLYSGVPSRFSGSRSGTDFTLTISSLQPEDFATYYCQQSSSSLITFGQGTKVEIKR
Kd of the PhnD mutant for glyphosate in the presence of Fab N2 (fluorescence titration): 450 nM
fold improvement of the Kd for glyphosate on adding Fab N2, compared to the mutant in the absence of Fab N2: ~18 fold
